Measured values as given in article PMC10997057.

Key:
[1] = target: synthetic AL amyloid fibrils composed of the recombinant λ6 light chain variable domain from patient (human); assay: co-sedimentation; "pulldown" bioactivity assay as a1; batch product 6 h post-synthesis (some loss of ^99mTcO4^-1 from the peptide)
[2] = target: synthetic AL amyloid fibrils composed of the recombinant λ6 light chain variable domain from patient (human); assay: co-sedimentation; pulldown as for WIL fibrils except that 1.0% bovine serum albumin was added; synthetic rVλ6WIL fibrils as substrate
[3] = target: ALλ amyloid extract (patient spleen) (human (endogenous in patient spleen)); assay: co-sedimentation; pulldown with tissue amyloid extracts suspended in PBS at 1 mg/mL, homogenized; as for WIL fibrils except that 1.0% bovine serum albumin was added
[4] = target: ALκ amyloid extract (patient liver) (human (endogenous in patient liver)); assay: as above
[5] = target: murine splenic AA amyloid extract (mouse (endogenous in spleen)) (UniProt P05367); assay: as above
Chain of murine splenic AA amyloid extract (mouse (endogenous in spleen)) (P05367 20-122): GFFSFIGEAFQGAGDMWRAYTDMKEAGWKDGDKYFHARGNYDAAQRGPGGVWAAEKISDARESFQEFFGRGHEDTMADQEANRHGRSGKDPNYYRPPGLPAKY

[6] = target: ATTRv amyloid extract (patient heart), variant not named (human (endogenous in patient heart)) (UniProt P02766); assay: as above
[7] = target: synthetic AL amyloid fibrils composed of the recombinant λ6 light chain variable domain from patient (human); assay: co-sedimentation; "pulldown" bioactivity assay; batch product at 0 h post-synthesis; 25 ug fibrils in PBS with 0.05% tween 20, 20-40 ng radiolabeled product, 1 h at RT, centrifugation 10,000 x g 3 min, gamma counting of pellet and supernatant
[8] = target: synthetic AL amyloid fibrils composed of the recombinant λ6 light chain variable domain from patient (human); assay: co-sedimentation; "pulldown" bioactivity assay as a1; batch product stored 3 h at RT post-synthesis
[9] = target: synthetic AL amyloid fibrils composed of the recombinant λ6 light chain variable domain from patient (human); assay: co-sedimentation; "pulldown" bioactivity assay; product labelled from lyophilized "kit" preparations stored at -80°C for 7, 98 and 128 days

Chain of ^99mTc-labeled p5+14 peptide (peptide): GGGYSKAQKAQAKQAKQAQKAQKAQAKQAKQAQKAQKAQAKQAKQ

^99mTc-labeled p5+14 peptide
Bioactivity (bound %), 6 h post-synthesis [1]: 72.2% | bound (%) [2]: 91.1% | bound (%) [3]: 88.1% | bound (%) [4]: 93.3% | bound (%) [5]: 67.8% | bound (%) [6]: 79% | Bioactivity (bound %), 0 h post-synthesis [7]: 94% | Bioactivity (bound %), 3 h post-synthesis [8]: 92.9% | bioactivity (% bound), kit at day 7 [9]: 76.8% | bioactivity (% bound), kit at day 98 [9]: 75.1% | bioactivity (% bound), kit at day 128 [9]: 75.2%
